From patent US20120283172A1 come the findings set out here.

The first assay deals with human growth hormone receptor on IM-9 cells (human) (UniProt P10912).
Chain of UniProt P10912 (P10912 19-638): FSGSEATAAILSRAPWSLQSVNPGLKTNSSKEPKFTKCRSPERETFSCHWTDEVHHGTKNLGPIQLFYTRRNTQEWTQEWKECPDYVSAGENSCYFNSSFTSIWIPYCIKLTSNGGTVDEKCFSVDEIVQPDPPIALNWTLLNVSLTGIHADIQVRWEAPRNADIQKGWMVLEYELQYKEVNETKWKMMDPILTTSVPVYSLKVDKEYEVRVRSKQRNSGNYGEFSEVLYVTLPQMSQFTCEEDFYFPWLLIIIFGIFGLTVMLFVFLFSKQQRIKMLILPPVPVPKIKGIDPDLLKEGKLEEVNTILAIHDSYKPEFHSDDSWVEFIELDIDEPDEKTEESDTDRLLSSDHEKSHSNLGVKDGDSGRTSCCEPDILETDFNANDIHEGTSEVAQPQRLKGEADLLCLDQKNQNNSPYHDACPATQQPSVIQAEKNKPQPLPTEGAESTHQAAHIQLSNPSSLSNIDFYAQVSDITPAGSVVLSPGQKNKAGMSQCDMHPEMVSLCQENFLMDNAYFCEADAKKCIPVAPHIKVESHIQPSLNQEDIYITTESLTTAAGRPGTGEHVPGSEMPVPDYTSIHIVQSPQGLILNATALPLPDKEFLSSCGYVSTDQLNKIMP
Experiment: not given
On to (His)F92-pAF-30K (ligand), for which the EC50, STAT5 phosphorylation in IM-9 cells (intracellular phospho-STAT5 staining, FACS, MFI PE) was determined as 4.1 nM.
On the same count and under the same terms, the same measure for (His)F92pAF-5K (ligand): 1.5 nM.
Same read-out and setting: with (His)F92pAF-20K (ligand) the figure was 4.6 nM; with “hGH F92pAF (from UniProt P01241 27-217) (ligand)”, 0.9 nM.

For a further assay the target is unchanged.
Experiment: not given
This is another data set of the same source.
Consider “hGH F92pAF (from UniProt P01241 27-217) (ligand)”, for which the EC50, STAT5 phosphorylation in IM-9 cells (intracellular phospho-STAT5 staining, FACS, MFI PE) was 1.1 nM.

The target is the same in another assay. Briefly: cell-based or functional assay.
“His-tagged hGH Y143pAF (from UniProt P01241 27-217) (ligand)”: the EC50 of STAT5 phosphorylation in IM-9 cells (MFI by intracellular phospho-STAT5 staining) came to 0.8 nM.
As to “hGH A155pAF (from UniProt P01241 27-217) (ligand)”, the EC50 of STAT5 phosphorylation in IM-9 cells (MFI by intracellular phospho-STAT5 staining) worked out at 1.3 nM.
Same read-out and setting: with “hGH E88pAF (from UniProt P01241 27-217) (ligand)” the figure was 0.9 nM; with “hGH F92pAF (from UniProt P01241 27-217) (ligand)”, 0.8 nM; with “hGH F139pAF (from UniProt P01241 27-217) (ligand)”, 3.3 nM.
In turn, “hGH G131pAF (from UniProt P01241 27-217) (ligand)” yielded an EC50 of STAT5 phosphorylation in IM-9 cells (MFI by intracellular phospho-STAT5 staining) of 0.8 nM.
On the same count and under the same terms, the same measure for “hGH G136pAF (from UniProt P01241 27-217) (ligand)”: 1.4 nM.
Still for that read-out and setting: with “hGH K140pAF (from UniProt P01241 27-217) (ligand)” the figure was 2.7 nM; with “hGH N99pAF (from UniProt P01241 27-217) (ligand)”, 8.5 nM.
“hGH P133pAF (from UniProt P01241 27-217) (ligand)” showed an EC50 of STAT5 phosphorylation in IM-9 cells (MFI by intracellular phospho-STAT5 staining) of 1 nM.
The same measure, in the same setting: with “hGH Q91pAF (from UniProt P01241 27-217) (ligand)” the figure was 2 nM; with “hGH R134pAF (from UniProt P01241 27-217) (ligand)”, 0.9 nM.
Same read-out and setting: with “hGH S95pAF (from UniProt P01241 27-217) (ligand)” the figure was 16.7 nM.
In turn, “hGH T135pAF (from UniProt P01241 27-217) (ligand)” displayed an EC50 of STAT5 phosphorylation in IM-9 cells (MFI by intracellular phospho-STAT5 staining) of 0.9 nM.
The same measure, in the same setting: the same measure for “hGH Y103pAF (from UniProt P01241 27-217) (ligand)”: 130000 nM; for “hGH Y111pAF (from UniProt P01241 27-217) (ligand)”: 1 nM.
Still for that read-out and setting: the same measure for “rat growth hormone, wild type (from UniProt P01244 27-216) (ligand)”: over 200000 nM.
